Key:
[1] = biological target: LY6A (Ly6a, C57BL/6J mouse) (mouse (C57BL/6J)) (UniProt P05533); test: AAV library bound to Ly6a-transfected HEK293T cells, NGS
[2] = biological target: LY6C1 (Ly6c1, C57BL/6J mouse, splice variant 1) (mouse (C57BL/6J)) (UniProt P0CW02); test: AAV library bound to Ly6c1-transfected HEK293T cells, NGS
[3] = biological target: LY6A (Ly6a, C57BL/6J mouse) (mouse (C57BL/6J)) (UniProt P05533); test: qPCR of viral genomes bound to Ly6a-transfected HEK293T cells

Chain of UniProt P0CW02 (P0CW02 27-109 limits assumed, change not shown): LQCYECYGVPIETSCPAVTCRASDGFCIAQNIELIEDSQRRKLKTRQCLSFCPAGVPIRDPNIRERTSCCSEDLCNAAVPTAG
Chain of UniProt P05533 (P05533 27-112 limits assumed): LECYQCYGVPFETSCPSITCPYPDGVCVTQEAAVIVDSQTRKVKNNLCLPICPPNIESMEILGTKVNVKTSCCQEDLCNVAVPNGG

Substance | fold enrichment (log2) [1] | fold enrichment (log2) [2] | fold increase in binding on Ly6a expression [3]
AAV9 K449R 7-mer variant VNRGYSS | 0.89 log2 | 5.18 log2 | –
AAV9 K449R 7-mer variant TRDLPFK | 4.34 log2 | -1.36 log2 | –
AAV9 K449R 7-mer variant GVDRPFK | 3.84 log2 | -1.13 log2 | –
AAV9 K449R 7-mer variant NDQRPFL | 3.27 log2 | -4.33 log2 | –
AAV9 K449R 7-mer variant MERYGSS | -2.28 log2 | 3.83 log2 | –
AAV9 K449R 7-mer variant SIYLGSQ | -0.76 log2 | 4.47 log2 | –
AAV9 K449R 7-mer variant IRQGYSS | -1.28 log2 | 2.61 log2 | –
AAV9 K449R 7-mer variant RSDFKDI | 3.45 log2 | -2.44 log2 | –
AAV9 K449R 7-mer variant PYQGASS | -0.53 log2 | 5.24 log2 | –
AAV9 K449R 7-mer variant TRFGSST | 1.29 log2 | 3.63 log2 | –
AAV9 K449R 7-mer variant NSPGWSS | -0.93 log2 | 3.08 log2 | –
AAV9 K449R 7-mer variant RIDNPFK | 4.48 log2 | -1.89 log2 | –
AAV-PHP.B3 | – | – | > 50 fold
AAV9 K449R 7-mer variant TYKSGSS | 1.95 log2 | 3.78 log2 | –
AAV9 K449R 7-mer variant QHFGQSS | -0.37 log2 | 4.68 log2 | –
AAV9 K449R 7-mer variant LKTGMSS | -0.66 log2 | 2.74 log2 | –
AAV9 K449R 7-mer variant TEKWTSS | 0.98 log2 | 4.43 log2 | –
AAV9 K449R 7-mer variant PPSFKNV | 3.69 log2 | -4.33 log2 | –
AAV9 K449R 7-mer variant VKVGFSS | -2.25 log2 | 4.22 log2 | –
AAV9 K449R 7-mer variant NRGGYAS | -0.18 log2 | 4.53 log2 | –
AAV9 K449R 7-mer variant HTQGYST | -3.32 log2 | 2.26 log2 | –
AAV9 K449R 7-mer variant YLKGYSA | 0.15 log2 | 4.46 log2 | –
AAV9 K449R 7-mer variant NERRPFL | 4.31 log2 | 0.77 log2 | –
AAV9 K449R 7-mer variant LKYGTST | 1.24 log2 | 4.88 log2 | –
AAV9 K449R 7-mer variant FRIGGSS | 1.34 log2 | 4.89 log2 | –
AAV9 K449R 7-mer variant SSTGYSS | -1.93 log2 | 4 log2 | –
AAV9 K449R 7-mer variant SLSKPFS | 2.19 log2 | -2.08 log2 | –
AAV9 K449R 7-mer variant LRTAYSS | 1.13 log2 | 5.12 log2 | –
AAV9 K449R 7-mer variant WRQGYAS | -0.09 log2 | 2.89 log2 | –
